# Source: PMC11065421, “An RNA-dependent and phase-separated active subnuclear compartment safeguards repressive chromatin domains” (Molecular Cell, 2024)
# Values joined by “and” are separate entries in the source; they are usually repeats but may differ in a detail not shown here. Equal values may be shown once.
# B1: recombinant BAZ2AN (domain or fragment, UniProt Q91YE5 1-744, looked up)
# chain: MEMEANDHFNFTGLPPAPAASGLKPSPSSGEGLYTNGSPMNFPQQGKSLNGDVNVNGLSTVSHTTTSGILNSAPHSSSTSHLHHPNVAYDCLWNYSQYPSANPGNNLKDPPLLSQFPGGQYPLNGILGGNRQPSSPSHNTNLRAGSQEFWANGTQSPMGLNFDSQELYDSFPDQNFEVMPNGPPSFFTSPQTSPMLGSSIQTFAPSQDVSSDIHPDEAAEKELTSVVAENGTGLVGSLELEEEQPELKMCGYNGSVSSVESLHQEVSVLVPDPTVSCLDDPSHLPDQLEDTPILSEDSLEPFDSLAAEPVSGSLYGIDDAELMGAEDKLPLEGNPVISALDCPALSNANAFSLLADDSQTSASIFVSPTSPPVLGESVLQDNSFGLNSCSDSEQEEIETQSSNFQRPLTEPAPDQPPSTQLHPAVSPTASPAASLTASAEISPAVSPVASSPVPPEVFVAVSPASSPALPAISLEASMTTPVTSPQGSPEPSPAAAFQTVSPARKNVSSAPKARADREETTGGAVAVSGSGDVLKRRIATPEEVRLPLQHGWRREVRIKKGSHRWQGETWYYGPCGKRMKQFPEVIKYLSRNVVHSVRREHFSFSPRMPVGDFFEERDTPEGLQWVQLSAEEIPSRIQAITGKRGRPRNNEKAKNKEVPKVKRGRGRPPKIKMPELLNKTDNRLPKKLETQEILSEDDKAKMTKNKKKMRQKVQRGESQTPVQGQARNKRKQDTKSLKQKDTKK
# notes: BAZ2A (TIP5) N-terminal region, aa 1-744; also called BAZ2AN-Hist; source: E. coli BL21(DE3), purified (Glutathione Sepharose, PreScission cleavage, HisTrap)
# Molecular target: the molecule itself
# Test: SEC; Superose 6 Increase 3.2/300; freshly purified recombinant protein concentrated up to 1 mg/ml; absorbance at 280 nm
protein,measurement,value
B1,stoichiometry N,4 units and 6 units
